B1: Early protein (Human adenovirus C serotype 5 (HAdV-5)), P03255-2 (parent)
chain: MRHIICHGGVITEEMAASLLDQLIEEVLADNLPPPSHFEPPTLHELYDLDVTAPEDPNEEAVSQIFPDSVMLAVQEGIDLLTFPPAPGSPEPPHLSRQPEQPEQRALGPVSMPNLVPEVIDLTCHEAGFPPSDDEDEEGPVSEPEPEPEPEPEPARPTRRPKMAPAILRRPTSPVSRECNSSTDSCDSGPSNTPPEIHPVVPLCPIKPVAVRVGGRRQAVECIEDLLNEPGQPLDLSCKRPRP
partner: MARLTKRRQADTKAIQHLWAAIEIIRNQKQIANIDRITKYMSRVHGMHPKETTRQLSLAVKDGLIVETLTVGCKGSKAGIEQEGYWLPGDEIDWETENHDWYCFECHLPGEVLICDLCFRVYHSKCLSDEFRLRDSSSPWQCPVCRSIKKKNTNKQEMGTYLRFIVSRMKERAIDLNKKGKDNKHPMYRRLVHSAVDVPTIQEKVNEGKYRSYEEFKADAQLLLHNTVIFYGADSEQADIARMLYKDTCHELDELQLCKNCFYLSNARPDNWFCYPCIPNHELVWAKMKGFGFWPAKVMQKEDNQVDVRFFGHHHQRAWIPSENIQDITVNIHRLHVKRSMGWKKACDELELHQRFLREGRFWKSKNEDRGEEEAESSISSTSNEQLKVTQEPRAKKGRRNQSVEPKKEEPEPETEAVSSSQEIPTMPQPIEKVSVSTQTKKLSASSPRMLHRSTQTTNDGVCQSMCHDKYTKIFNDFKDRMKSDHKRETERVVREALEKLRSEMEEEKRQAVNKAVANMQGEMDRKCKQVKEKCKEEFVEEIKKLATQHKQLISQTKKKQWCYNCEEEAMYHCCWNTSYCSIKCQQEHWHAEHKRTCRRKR

Variants of: B1
Settings: with zmy11_human ZMYND11, Q15326

Variant | effect of a mutation on the interaction
L115A | disrupting interaction
